B1: human flotillin-2 (as in the purified complex used for cryo-EM) (natural protein, UniProt Q14254 1-428, looked up)
chain: MGNCHTVGPNEALVVSGGCCGSDYKQYVFGGWAWAWWCISDTQRISLEIMTLQPRCEDVETAEGVALTVTGVAQVKIMTEKELLAVACEQFLGKNVQDIKNVVLQTLEGHLRSILGTLTVEQIYQDRDQFAKLVREVAAPDVGRMGIEILSFTIKDVYDKVDYLSSLGKTQTAVVQRDADIGVAEAERDAGIREAECKKEMLDVKFMADTKIADSKRAFELQKSAFSEEVNIKTAEAQLAYELQGAREQQKIRQEEIEIEVVQRKKQIAVEAQEILRTDKELIATVRRPAEAEAHRIQQIAEGEKVKQVLLAQAEAEKIRKIGEAEAAVIEAMGKAEAERMKLKAEAYQKYGDAAKMALVLEALPQIAAKIAAPLTKVDEIVVLSGDNSKVTSEVNRLLAELPASVHALTGVDLSKIPLIKKATGVQV
B2: human flotillin-1 with a C-terminal 3× FLAG tag (natural protein, UniProt O75955 1-427, looked up)
chain: MFFTCGPNEAMVVSGFCRSPPVMVAGGRVFVLPCIQQIQRISLNTLTLNVKSEKVYTRHGVPISVTGIAQVKIQGQNKEMLAAACQMFLGKTEAEIAHIALETLEGHQRAIMAHMTVEEIYKDRQKFSEQVFKVASSDLVNMGISVVSYTLKDIHDDQDYLHSLGKARTAQVQKDARIGEAEAKRDAGIREAKAKQEKVSAQYLSEIEMAKAQRDYELKKAAYDIEVNTRRAQADLAYQLQVAKTKQQIEEQRVQVQVVERAQQVAVQEQEIARREKELEARVRKPAEAERYKLERLAEAEKSQLIMQAEAEAASVRMRGEAEAFAIGARARAEAEQMAKKAEAFQLYQEAAQLDMLLEKLPQVAEEISGPLTSANKITLVSSGSGTMGAAKVTGEVLDILTRLPESVERLTGVSISQVNHKPLRTA

Assays:
[1] = molecular target: B2; assay: cryo-EM structure
cryo-EM structure = molecular target: the molecule itself; assay: cryo-EM structure

Binder | stoichiometry N [1] | binding result (cryo-EM structure)
B1 | 44 protomers (22 flotillin-1 and 22 flotillin-2) | 
B2 |  | binds

— PMC13000311 (Nature Communications, 2026)
